Data as given in paper PMC5070869, “Secretion-Positive LGI1 Mutations Linked to Lateral Temporal Epilepsy Impair Binding to ADAM22 and ADAM23 Receptors” (PLoS Genetics, 2016).

Key:
[1] = molecular target: T1, HA-ADAM22 (UniProt Q9P0K1 223-906); experiment: immunostaining of cells or tissue; COS7 cells co-transfected with LGI1-Flag (wild type or mutant) and HA-ADAM22 or HA-ADAM23; 36 h after transfection fixed, LGI1 stained with anti-Flag before permeabilisation, ADAM with anti-HA after it; percentage of co-immunostained cells with both signals on the cell surface counted; three independent experiments; conditions: partners not purified
T1 construct: ADAM22 (A Disintegrin And Metalloprotease domain 22) receptor, cDNA; In the HEK293T lysates it is present in both immature (110 kDa) and mature (90 kDa) forms; also called HA-tagged ADAM22; HA-fused ADAM22; source: COS7, co-transfected, on cells (immunofluorescence); HEK293T, co-transfected, in lysate (co-IP)
T1 sequence (looked up): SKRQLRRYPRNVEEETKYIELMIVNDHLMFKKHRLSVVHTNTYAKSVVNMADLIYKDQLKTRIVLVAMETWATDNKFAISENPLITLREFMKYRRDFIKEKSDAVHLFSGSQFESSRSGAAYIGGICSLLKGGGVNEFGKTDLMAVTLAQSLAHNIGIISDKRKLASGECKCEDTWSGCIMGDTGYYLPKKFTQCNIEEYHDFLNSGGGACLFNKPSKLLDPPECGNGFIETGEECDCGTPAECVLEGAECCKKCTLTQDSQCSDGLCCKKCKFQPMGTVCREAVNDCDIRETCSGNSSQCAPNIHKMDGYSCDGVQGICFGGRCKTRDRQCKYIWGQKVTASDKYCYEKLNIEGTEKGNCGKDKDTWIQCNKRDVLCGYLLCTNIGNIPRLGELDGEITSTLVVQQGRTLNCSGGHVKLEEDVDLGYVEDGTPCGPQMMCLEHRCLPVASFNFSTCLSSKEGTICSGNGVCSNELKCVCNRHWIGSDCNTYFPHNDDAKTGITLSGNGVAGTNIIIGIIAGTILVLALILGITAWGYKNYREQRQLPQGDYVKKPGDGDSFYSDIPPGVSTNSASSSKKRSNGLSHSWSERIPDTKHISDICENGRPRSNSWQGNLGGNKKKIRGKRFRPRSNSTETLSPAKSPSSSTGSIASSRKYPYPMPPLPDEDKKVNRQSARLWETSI

[2] = molecular target: T2, HA-ADAM23 (UniProt O75077 287-832); experiment: as above; conditions: partners not purified
T2 construct: ADAM23 (A Disintegrin And Metalloprotease domain 23) receptor, cDNA; Expression of HA-ADAM23 in HEK293T was lower than that of HA-ADAM22; also called HA-tagged ADAM23; HA-fused ADAM23; source: COS7, co-transfected, on cells (immunofluorescence); HEK293T, co-transfected, in lysate (co-IP)
T2 sequence (looked up): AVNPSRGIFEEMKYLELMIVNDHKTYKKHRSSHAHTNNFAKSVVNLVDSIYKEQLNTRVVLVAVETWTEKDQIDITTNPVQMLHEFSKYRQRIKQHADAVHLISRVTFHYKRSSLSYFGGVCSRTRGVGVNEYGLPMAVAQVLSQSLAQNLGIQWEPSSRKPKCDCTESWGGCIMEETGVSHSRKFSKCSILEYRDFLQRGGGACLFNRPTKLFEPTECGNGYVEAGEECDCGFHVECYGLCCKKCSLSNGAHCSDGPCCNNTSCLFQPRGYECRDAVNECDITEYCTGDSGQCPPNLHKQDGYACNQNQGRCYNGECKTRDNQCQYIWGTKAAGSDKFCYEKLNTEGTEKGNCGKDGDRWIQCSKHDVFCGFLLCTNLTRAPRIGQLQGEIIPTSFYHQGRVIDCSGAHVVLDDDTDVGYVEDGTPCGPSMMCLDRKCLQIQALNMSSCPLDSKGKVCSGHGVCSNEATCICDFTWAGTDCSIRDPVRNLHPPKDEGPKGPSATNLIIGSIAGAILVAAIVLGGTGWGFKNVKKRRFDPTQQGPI

B1: wild type LGI1-Flag (leucine-rich, glioma-inactivated 1) (ligand, human, UniProt O95970 35-557, looked up)
chain: KKPAKPKCPAVCTCTKDNALCENARSIPRTVPPDVISLSFVRSGFTEISEGSFLFTPSLQLLLFTSNSFDVISDDAFIGLPHLEYLFIENNNIKSISRHTFRGLKSLIHLSLANNNLQTLPKDIFKGLDSLTNVDLRGNSFNCDCKLKWLVEWLGHTNATVEDIYCEGPPEYKKRKINSLSSKDFDCIITEFAKSQDLPYQSLSIDTFSYLNDEYVVIAQPFTGKCIFLEWDHVEKTFRNYDNITGTSTVVCKPIVIETQLYVIVAQLFGGSHIYKRDSFANKFIKIQDIEILKIRKPNDIETFKIENNWYFVVADSSKAGFTTIYKWNGNGFYSHQSLHAWYRDTDVEYLEIVRTPQTLRTPHLILSSSSQRPVIYQWNKATQLFTNQTDIPNMEDVYAVKHFSVKGDVYICLTRFIGDSKVMKWGGSSFQDIQRMPSRGSMVFQPLQINNYQYAILGSDYSFTQVYNWDAEKAKFVKFQELNVQAPRSFTHVSINKRNFLFASSFKGNTQIYKHVIVDLSA
notes: the protein has a signal peptide and is secreted; also called LGI1 wild type; WT; source: COS7, co-transfected with HA-ADAM22 or HA-ADAM23 (immunofluorescence); HEK293T, co-transfected, in lysate (co-IP)
percent of cells with membrane-bound LGI1 [1]: 76%
percent of cells with membrane-bound LGI1 [2]: 88%

B2: LGI1-S473L (Flag-tagged) (ligand, human, UniProt O95970 35-557, looked up)
chain: KKPAKPKCPAVCTCTKDNALCENARSIPRTVPPDVISLSFVRSGFTEISEGSFLFTPSLQLLLFTSNSFDVISDDAFIGLPHLEYLFIENNNIKSISRHTFRGLKSLIHLSLANNNLQTLPKDIFKGLDSLTNVDLRGNSFNCDCKLKWLVEWLGHTNATVEDIYCEGPPEYKKRKINSLSSKDFDCIITEFAKSQDLPYQSLSIDTFSYLNDEYVVIAQPFTGKCIFLEWDHVEKTFRNYDNITGTSTVVCKPIVIETQLYVIVAQLFGGSHIYKRDSFANKFIKIQDIEILKIRKPNDIETFKIENNWYFVVADSSKAGFTTIYKWNGNGFYSHQSLHAWYRDTDVEYLEIVRTPQTLRTPHLILSSSSQRPVIYQWNKATQLFTNQTDIPNMEDVYAVKHFSVKGDVYICLTRFIGDSKVMKWGGSSFQDIQRMPLRGSMVFQPLQINNYQYAILGSDYSFTQVYNWDAEKAKFVKFQELNVQAPRSFTHVSINKRNFLFASSFKGNTQIYKHVIVDLSA
notes: LGI1 with the ADLTE-causing substitution S473L (c.1418C>T); secreted protein; also called c.1418C>T; source: COS7, co-transfected with HA-ADAM22 or HA-ADAM23 (immunofluorescence); HEK293T, co-transfected, in lysate (co-IP)
percent of cells with membrane-bound LGI1 [1]: 3%
percent of cells with membrane-bound LGI1 [2]: 16%

B3: LGI1-R407C (Flag-tagged) (ligand, human, UniProt O95970 35-557, looked up)
chain: KKPAKPKCPAVCTCTKDNALCENARSIPRTVPPDVISLSFVRSGFTEISEGSFLFTPSLQLLLFTSNSFDVISDDAFIGLPHLEYLFIENNNIKSISRHTFRGLKSLIHLSLANNNLQTLPKDIFKGLDSLTNVDLRGNSFNCDCKLKWLVEWLGHTNATVEDIYCEGPPEYKKRKINSLSSKDFDCIITEFAKSQDLPYQSLSIDTFSYLNDEYVVIAQPFTGKCIFLEWDHVEKTFRNYDNITGTSTVVCKPIVIETQLYVIVAQLFGGSHIYKRDSFANKFIKIQDIEILKIRKPNDIETFKIENNWYFVVADSSKAGFTTIYKWNGNGFYSHQSLHAWYRDTDVEYLEIVRTPQTLRTPHLILSSSSQCPVIYQWNKATQLFTNQTDIPNMEDVYAVKHFSVKGDVYICLTRFIGDSKVMKWGGSSFQDIQRMPSRGSMVFQPLQINNYQYAILGSDYSFTQVYNWDAEKAKFVKFQELNVQAPRSFTHVSINKRNFLFASSFKGNTQIYKHVIVDLSA
notes: LGI1 with the ADLTE-causing substitution R407C (c.1219C>T); secreted protein; also called c.1219C>T; source: COS7, co-transfected with HA-ADAM22 or HA-ADAM23 (immunofluorescence); HEK293T, co-transfected, in lysate (co-IP)
percent of cells with membrane-bound LGI1 [1]: 36%
percent of cells with membrane-bound LGI1 [2]: 29%

B4: LGI1-R474Q (Flag-tagged) (ligand, human, UniProt O95970 35-557, looked up)
chain: KKPAKPKCPAVCTCTKDNALCENARSIPRTVPPDVISLSFVRSGFTEISEGSFLFTPSLQLLLFTSNSFDVISDDAFIGLPHLEYLFIENNNIKSISRHTFRGLKSLIHLSLANNNLQTLPKDIFKGLDSLTNVDLRGNSFNCDCKLKWLVEWLGHTNATVEDIYCEGPPEYKKRKINSLSSKDFDCIITEFAKSQDLPYQSLSIDTFSYLNDEYVVIAQPFTGKCIFLEWDHVEKTFRNYDNITGTSTVVCKPIVIETQLYVIVAQLFGGSHIYKRDSFANKFIKIQDIEILKIRKPNDIETFKIENNWYFVVADSSKAGFTTIYKWNGNGFYSHQSLHAWYRDTDVEYLEIVRTPQTLRTPHLILSSSSQRPVIYQWNKATQLFTNQTDIPNMEDVYAVKHFSVKGDVYICLTRFIGDSKVMKWGGSSFQDIQRMPSQGSMVFQPLQINNYQYAILGSDYSFTQVYNWDAEKAKFVKFQELNVQAPRSFTHVSINKRNFLFASSFKGNTQIYKHVIVDLSA
notes: LGI1 with the ADLTE-causing substitution R474Q (c.1421G>A); secreted protein; also called c.1421G>A; source: COS7, co-transfected with HA-ADAM22 or HA-ADAM23 (immunofluorescence); HEK293T, co-transfected, in lysate (co-IP)
percent of cells with membrane-bound LGI1 [1]: 13%
percent of cells with membrane-bound LGI1 [2]: 23%
